Earlier results as cited in PMC6828933.
pKd: −log10 of the molar value.

Biological target: eNOS (Homo sapiens) (UniProt P29474)
UniProt P29474, sequence (P29474 2-1203): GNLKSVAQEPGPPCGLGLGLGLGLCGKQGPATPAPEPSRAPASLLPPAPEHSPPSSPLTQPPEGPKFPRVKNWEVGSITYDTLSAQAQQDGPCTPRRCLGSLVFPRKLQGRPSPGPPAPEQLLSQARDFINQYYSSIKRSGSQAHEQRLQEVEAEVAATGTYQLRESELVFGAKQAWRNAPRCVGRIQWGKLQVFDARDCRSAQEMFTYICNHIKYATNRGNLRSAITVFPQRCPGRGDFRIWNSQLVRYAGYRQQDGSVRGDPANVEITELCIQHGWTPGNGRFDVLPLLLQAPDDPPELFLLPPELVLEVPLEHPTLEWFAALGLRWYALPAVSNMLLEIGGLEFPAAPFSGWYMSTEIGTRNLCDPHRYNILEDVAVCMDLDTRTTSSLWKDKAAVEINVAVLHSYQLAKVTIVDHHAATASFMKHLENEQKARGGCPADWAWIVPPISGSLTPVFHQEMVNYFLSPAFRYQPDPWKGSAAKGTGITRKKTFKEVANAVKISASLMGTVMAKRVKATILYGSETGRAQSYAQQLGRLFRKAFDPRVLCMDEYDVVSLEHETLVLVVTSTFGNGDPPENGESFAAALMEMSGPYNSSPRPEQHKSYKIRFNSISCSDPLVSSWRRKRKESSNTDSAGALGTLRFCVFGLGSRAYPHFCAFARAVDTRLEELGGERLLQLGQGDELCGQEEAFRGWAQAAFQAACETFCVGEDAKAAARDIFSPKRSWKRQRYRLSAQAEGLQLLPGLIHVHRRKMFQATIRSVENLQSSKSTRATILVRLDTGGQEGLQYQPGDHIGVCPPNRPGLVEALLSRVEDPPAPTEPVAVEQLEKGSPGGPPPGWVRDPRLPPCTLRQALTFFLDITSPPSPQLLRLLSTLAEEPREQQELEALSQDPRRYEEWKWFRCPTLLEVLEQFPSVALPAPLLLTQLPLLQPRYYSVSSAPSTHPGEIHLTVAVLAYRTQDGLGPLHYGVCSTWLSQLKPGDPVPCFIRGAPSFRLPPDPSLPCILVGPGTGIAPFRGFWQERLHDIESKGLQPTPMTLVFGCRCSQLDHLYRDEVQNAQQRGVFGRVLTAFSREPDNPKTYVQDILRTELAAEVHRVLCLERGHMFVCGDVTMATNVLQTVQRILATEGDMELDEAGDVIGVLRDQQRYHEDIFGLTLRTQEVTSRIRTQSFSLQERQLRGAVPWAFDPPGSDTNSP

pKd: 7.38
Substance: Caveolin-1 90-99 (from UniProt Q03135)
